Results as given in the supplement of paper PMC9170038.

Tested on: MS2 coat protein
Assay: apparent KD of MS2 coat protein; designed switch direction (-1 OFF switch, 1 ON switch): -1; higher = weaker reporter binding
Method in brief: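 An oligonucleotide input, 200 uM small-molecule ligand, or no input was present during titration of SNAP-549-labelled MS2 coat protein, which was doubled from 0.7 or 1.5 nM to 3 µM. Designed RNA switches had been transcribed on Illumina chips by stalled E. coli RNA polymerase. Apparent KD per design is the median over clusters of curves fitted to normalised cluster fluorescence.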

[1] = Eterna round: R95, input ligand: microRNA oligo, concentration not stated
[2] = input ligand: microRNA oligo, concentration not stated
[3] = Eterna round: R95, input ligand: FMN 200 uM
[4] = Eterna round: R95, input ligand: none

Sequence	apparent KD of MS2 coat protein (input ligand: FMN 200 uM)	apparent KD of MS2 coat protein (input ligand: none)	apparent KD of MS2 coat protein [1]	apparent KD of MS2 coat protein [2]	apparent KD of MS2 coat protein [3]	apparent KD of MS2 coat protein [4]
GGAUCGAGUGUGAGGAUAUACCUAUGGAAACAUAGGUAGAAGGCACAUGAGGAUCACCCAUGUGUUCCCGGUCC [Mat - Exclusion 4 - Eli Mod - D16] (Eterna round: R97, puzzle: Brourd's mod of Exclusion 4)	485 nM	50.8 nM				
UAUAUGUCAGGAUAUUAGUAGUAAAUAAAUAAAAUUAUUACUGAGAAGGGACAUGAGGAUCACCCAUGUACCUU [Salish 062 v32] (Eterna round: R97, puzzle: Exclusion 4)	16.1 nM	15.5 nM				
GUCUUGUCAGGAUAUCUUACAUAACCAUCGUAGUUACAAUUGGAGAAGGGACAUGAGGAUCACCCAUGUUUGCG [tap-tap-tappy32] (Eterna round: R97, puzzle: Exclusion 4)	34.8 nM	26.6 nM				
UGGGAACGAGGAUAUCGAUGGUGGAACAUGAGGAUCACCCAUGUAUGAGAUAGUGUAGUUCGAGAAGGCGUUAAGU [JR_E5_Sub053] (puzzle: Exclusion 5)			54 nM			
AAGGGUACUUUCAGAACGACAUGAGGAUCACCCAUGUAGACUGAGGAUAUCUACUACUAAGGACGGGAGAAGGCAGUGUAAUGU [Ex NG3 #73] (Eterna round: R96, puzzle: Exclusion NG 3)	13.8 nM	15.2 nM		10 nM		
ACAUGAGGAUCACCCAUGUGAAAACAAUGGCUGACUAAGAGAUAGGAUAUAUGUGCAUAUCAAACAUAGAAGGGUCAUUACUGG [Deportation 88 - Jieux - Exclusion NG 3] (Eterna round: R96, puzzle: Exclusion NG 3)	36.1 nM	37.2 nM		25.3 nM		
UUUUAAUAUGAAGGAUAUACUUAACAUGAGGAUCACCCAUGUGGUGUUGUGAGUGAGUGAGUUUAGUAGAAGGUCAAUGAUUUU [JMF's solution 69] (Eterna round: R96, puzzle: Exclusion NG 2)	638 nM	252 nM		381 nM		
UGAUCUUUUGUUAGGAUAUGCUGGCUGAAAAGUCAGCAGAAGGGACAUGAGGAUCACCCAUGUUCUCUCUUUUU [Magic-09] (puzzle: Brourd's mod of Exclusion 4)			10.3 nM			
CCAUGUUAGCAGGAUAUGCAAUAAAUCUUUUAAGCAGAAGGGCUUACAUGAGGAUCACCCAUGUAUAAAGUCAA [JR_E6_Sub079] (puzzle: Exclusion 6)			19.9 nM			
GAUUGACAUGAGGAUCACCCAUGUGAGGAUAUCGGCUGGACCGUGUUGGCUUGGGUUUCGAGAAGGCGCAUAGG [Exclusion 1 V46] (puzzle: Exclusion 1)			88.2 nM		70.5 nM	74.6 nM
GUCGUGCGGCUUUGCUGUGCGGGUGCAUGAGGAUCACCCAUGUAGGAUAUGGUACGCUUUGCGUGCCAGAAGGGCGUGCGUUGG [salish99_ExNG3_r04_009] (Eterna round: R96, puzzle: Exclusion NG 3)	154 nM	110 nM		114 nM		
AUCGUGGCUCAGGAUAUCAGCCCUGUGGAGUUCUGAGAAGGGAGCACAUGAGGAUCACCCAUGUGAAAGGGUAC [Esdienar] (puzzle: Exclusion 6)			45.6 nM		148 nM	40.8 nM
AUCGGACAUGAGGAUCACCCAUGUCAGGAUAUCUGGAACCAUUGGCAGAUGAGGGAAAAGAGAAGGGACAGUGG [EX1 C.3] (Eterna round: R97, puzzle: Exclusion 1)	20.2 nM	18.5 nM				
GAGCUGUGAGGAUAUACAUGAGGAUCACCCAUGUAAUGGUAGUCGGGAUUAAUUUGGUGUAGAAGGCGCUUAUU [JR_Ex3_Sub020] (Eterna round: R97, puzzle: Exclusion 3)	41 nM	46 nM				
CCCGCGCGUGUAGGAUAUGGCUCGGUGUCUGGGCCAGAAGGACAUGAGGAUCACCCAUGUCUGCGGGUGUGGGCGUGGUUUGGG [-36, -33 kcal A 14%] (Eterna round: R96, puzzle: Exclusion NG 1)	91.8 nM	27.2 nM		18.6 nM		
UCAGUUCUGCAAGGAUAUCGUCCUAGUUUGGUUCGAGAAGGUGCUUUUGUUUUUUCUUUGUGUUGACAUGAGGAUCACCCAUGU [JR_ExcNG1_Sub053] (Eterna round: R96, puzzle: Exclusion NG 1)	20.7 nM	27.1 nM		13.8 nM		
AAAAAGGUAGGAUAUACGAAAAAAAAGGGUAGAAAAAAAACACAUGAGGAUCACCCAUGUAGAAGGACCAAAAC [salish99_ex2_r3_046] (puzzle: Exclusion 2)			33.4 nM		66.7 nM	30.2 nM
CUUCGUAAUGUCAGGAUAUUUUCGAGGGCAACUCAAAAGAAGGGACAUGAGGAUCACCCAUGUGGCAACGUCAU [Eternabot (L2) Solution 83] (Eterna round: R97, puzzle: Brourd's mod of Exclusion 4)	177 nM	51.9 nM				
AGUUGGCGAGGAUAUACAUGAGGAUCACCCAUGUGAAGAAGAAGAGUGAGGAAGAAAAGUAGAAGGCGCUGACA [Mat - Exclusion 3 - Mod of Salish D38] (puzzle: Exclusion 3)			84 nM		87.9 nM	50.7 nM
CUUCUGUGAGGAUAUGUUAGUUCCCAGCAAAUCGCUGGGAGACAGAAGGCACAUGAGGAUCACCCAUGUGGGCG [Vexeanra] (Eterna round: R96, puzzle: Exclusion 4)	612 nM	64.7 nM		49.8 nM		
UACAUGAGGAUCACCCAUGUUUUGUCGUGUAUGGUAUUUAUCUAGGAUAUCAUAUUAUUUAGUUAUGAGAAGGAGAAUAUUAAU [JMF's solution 80] (Eterna round: R96, puzzle: Exclusion NG 3)	24.9 nM	19.3 nM		12.7 nM		
GAAUGAGAGCAGGAUAUCUUAUAAAUGUAUGAAAGAGAAGGGCUCACAUGAGGAUCACCCAUGUGGUCCUAAAU [jl-ex6-4.74 jandersonlee mod] (Eterna round: R97, puzzle: Exclusion 6)	286 nM	44.5 nM				
UUAGCGUAAGUAAGGAUAUGCUGGUCGAAAGACCAGCAGAAGGUACAUGAGGAUCACCCAUGUUGAUUCGUUGC [Mod of JL 13 - Jieux - Brourd's mod of Exclusion 4] (Eterna round: R97, puzzle: Brourd's mod of Exclusion 4)	284 nM	39.7 nM				
AAAUAAAGGUAGGAUAUCGAUUUUAAUUAAUAUCGAGAAGGGUCAACAUGAGGAUCACCCAUGUCAGCAUGUAA [LRO-Excl6-01-Rocketman] (Eterna round: R97, puzzle: Exclusion 6)	59.9 nM	64.2 nM				
UAAAUGUGAGGAUAUUCGUAGAACUCGGAGACGAGUUUUACGGAGAAGGCACAUGAGGAUCACCCAUGUUCCUU [Mat - Exclusion 4 - JL Mod - D2] (Eterna round: R97, puzzle: Exclusion 4)	169 nM	28.6 nM				
